Laboratory results: article PMC4427524 (Molecular cell, 2015)
Where no end group is shown, it is not given here.

molecular target: purified recombinant WDR5 (used for FPA) (UniProt P61964 1-334); assay: fluorescence polarisation

Row | Kd [µM] | Binder
1 | 9.3 | DEEEIDVVSV (also: FITC label (position not given here)) [FITC-labeled MbIIIb peptide (residues 258–267 of human c-MYC)]
2 | > 500 | DEEEIDGVSV [MbIIIb mutant peptide V264G]
3 | > 500 | DEEEEDEESV [MbIIIb mutant peptide WBM (I262/V264/V265 to glutamic acid)]
